Tested on: MS2 coat protein
Experiment: apparent KD of MS2 coat protein; designed switch direction (-1 OFF switch, 1 ON switch): -1; higher = weaker reporter binding
Method in brief: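 An oligonucleotide input, 200 uM small-molecule ligand, or no input was present during titration of SNAP-549-labelled MS2 coat protein, which was doubled from 0.7 or 1.5 nM to 3 µM. Designed RNA switches had been transcribed on Illumina chips by stalled E. coli RNA polymerase. Apparent KD per design is the median over clusters of curves fitted to normalised cluster fluorescence.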

[1] = input ligand: microRNA oligo, concentration not stated
[2] = Eterna round: R95, input ligand: FMN 200 uM
[3] = Eterna round: R95, input ligand: microRNA oligo, concentration not stated
[4] = Eterna round: R95, input ligand: none

Sequence: GGUCGUUUAGUGAGGAUAUGCAGCGUCAUAGCGCAGCAGAAGGCACAUGAGGAUCACCCAUGUCCUCCCAAAAG [Eternabot (L1) Solution 9] (Eterna round: R97, puzzle: Brourd's mod of Exclusion 4)
- apparent KD of MS2 coat protein (input ligand: FMN 200 uM): 253 nM
- apparent KD of MS2 coat protein (input ligand: none): 18.9 nM

Sequence: UGAUUUGGAGGAUAUACAUGAGGAUCACCCAUGUAAAGGCCGUGGGUCGAACCCGAGAGUAGAAGGUCGAGAGA [Eternabot (L1) Solution 30] (Eterna round: R97, puzzle: Exclusion 3)
- apparent KD of MS2 coat protein (input ligand: FMN 200 uM): 185 nM
- apparent KD of MS2 coat protein (input ligand: none): 91.7 nM

Sequence: GUCAGCUCGUGAGGAUAUGAACAUGAGGAUCACCCAUGUAAGAUCAAGCUGCUUCGGCAGCAAGUUCAGAAGGCACGAGCUGAU [ENG2/10-A2] (Eterna round: R96, puzzle: Exclusion NG 2)
- apparent KD of MS2 coat protein (input ligand: FMN 200 uM): 251 nM
- apparent KD of MS2 coat protein [1]: 134 nM
- apparent KD of MS2 coat protein (input ligand: none): 172 nM

Sequence: AAAUCGGCAGGAUAUACAUGAGGAUCACCCAUGUAAAUUUUUCGUUUAACUUGAAUGUGUAGAAGGGCCAUUAA [Ex3 #64] (Eterna round: R97, puzzle: Exclusion 3)
- apparent KD of MS2 coat protein (input ligand: FMN 200 uM): 24.8 nM
- apparent KD of MS2 coat protein (input ligand: none): 24.6 nM

Sequence: AAGCCUCAGGUUAGGAUAUACGCCUGGCCGAAGGAGUAGAAGGGACAUGAGGAUCACCCAUGUGGGUUCAAAAG [Atanvege] (puzzle: Brourd's mod of Exclusion 4)
- apparent KD of MS2 coat protein [2]: 52.5 nM
- apparent KD of MS2 coat protein [3]: 43 nM
- apparent KD of MS2 coat protein [4]: 44.9 nM

Sequence: CUAGUCCGAGGAUAUAUUAUGUGAUACAUGAGGAUCACCCAUGUUAUAUGAUGGAUGUUAAUAGAAGGCGGACUAG [Mat - Exclusion 5 - JL mod - D72] (puzzle: Exclusion 5)
- apparent KD of MS2 coat protein [2]: 246 nM
- apparent KD of MS2 coat protein [3]: 118 nM
- apparent KD of MS2 coat protein [4]: 110 nM

Sequence: UGAGGACAUGAGGAUCACCCAUGUAAGGAUAUGCGGAGAGAUUGGAGAGGUCGAGGAGGCAGAAGGUACAGGAC [JR_Exclu1_Sub049] (puzzle: Exclusion 1)
- apparent KD of MS2 coat protein [3]: 68 nM

Sequence: AAGAGGAAUAUAGGAUAUGAGGCUGAGACGGCGUCAGAAGGGUAUCCAGAGUUACAUGAGGAUCACCCAUGUGGUGAUUUCUAA [Exclusion NG 1 V2 1] (Eterna round: R96, puzzle: Exclusion NG 1)
- apparent KD of MS2 coat protein (input ligand: FMN 200 uM): 9.2 nM
- apparent KD of MS2 coat protein [1]: 5.74 nM
- apparent KD of MS2 coat protein (input ligand: none): 81.2 nM

Sequence: AAGUGUGCCUAGGAUAUGUUCGGCCAAGGUCAUACAGAAGGAGGCACAUGAGGAUCACCCAUGUAGUGUCCUAC [Soququis] (puzzle: Exclusion 6)
- apparent KD of MS2 coat protein [3]: 59.6 nM

Sequence: CGUACUGAAGUCAGGAUAUUGUCUCGGAUACGAAACAAGAAGGGACAUGAGGAUCACCCAUGUGGACAGUACGA [Malc #30 mod 6] (puzzle: Brourd's mod of Exclusion 4)
- apparent KD of MS2 coat protein [2]: 38.3 nM
- apparent KD of MS2 coat protein [3]: 44 nM
- apparent KD of MS2 coat protein [4]: 36.7 nM

Sequence: CGCAGACGAGGAUAUAGAUGGAAUGACAUGAGGAUCACCCAUGUGAUCGAUCUAUUGGGUUUAGAAGGUGUCUGCG [JR_Ex5_Sub046] (Eterna round: R97, puzzle: Exclusion 5)
- apparent KD of MS2 coat protein (input ligand: FMN 200 uM): 14.4 nM
- apparent KD of MS2 coat protein (input ligand: none): 15.2 nM

Sequence: CCAGGCAAUUCCACUUGUAACAUGAGGAUCACCCAUGUGACCUGGUAUCAAGGCAGCUCGUCAUCCCACCAUAUUCA [Eternabot (L1) Solution 23] (Eterna round: R97, puzzle: Sensor, turn-off variant 1)
- apparent KD of MS2 coat protein (input ligand: FMN 200 uM): 18.8 nM
- apparent KD of MS2 coat protein (input ligand: none): 18.4 nM

Sequence: ACAUGAGGAUCACCCAUGUUUUUCGGGUACUCUUUUUACAGCAAGGAUAUGCAUGUUUUUUUUACGCAGAAGGUGCUUUACGUC [JR_ExcNG3_Sub067] (Eterna round: R96, puzzle: Exclusion NG 3)
- apparent KD of MS2 coat protein [1]: 77.7 nM

Sequence: AAGUGGAAAACACAAUUGUACAUGAGGAUCACCCAUGUAUGUACGAAAUAUAGACAAGCUGUAUGCUCGACAACACA [Sensor v2 M17] (Eterna round: R96, puzzle: Sensor v2, turn-off variant)
- apparent KD of MS2 coat protein (input ligand: FMN 200 uM): 36.3 nM
- apparent KD of MS2 coat protein [1]: 18.3 nM
- apparent KD of MS2 coat protein (input ligand: none): 37 nM

Sequence: GGAUUCCAGUGAGGAUAUCCAAAUAAAAGCCAUGGAGAAGGCACAUGAGGAUCACCCAUGUAGGGCAAUAGCAGCGACCACUGC [Raqube] (Eterna round: R96, puzzle: Exclusion NG 1)
- apparent KD of MS2 coat protein (input ligand: FMN 200 uM): 59.4 nM
- apparent KD of MS2 coat protein [1]: 27.6 nM
- apparent KD of MS2 coat protein (input ligand: none): 29.3 nM

Sequence: UUUUACAGGCUUAGAUCCUACAUGAGGAUCACCCAUGUGGAGGCGUGUCGUGAGACAUGCCUCUAAGCUCGUCUUGU [JL TOV1 3.74] (Eterna round: R97, puzzle: Sensor, turn-off variant 1)
- apparent KD of MS2 coat protein (input ligand: FMN 200 uM): 86.2 nM
- apparent KD of MS2 coat protein (input ligand: none): 103 nM

Sequence: AACGACUGAGGAUAUACAUGAGGAUCACCCAUGUGUUGAAAUACGUGCUUGGUUAACUGUAGAAGGCAGAAAAU [Isxeen] (puzzle: Exclusion 3)
- apparent KD of MS2 coat protein [2]: 21.9 nM
- apparent KD of MS2 coat protein [3]: 12.8 nM
- apparent KD of MS2 coat protein [4]: 14 nM

Sequence: GUGUCUCGUGUAGGAUAUGCGCGAGGUCUUUGUGCAGAAGGACAUGAGGAUCACCCAUGUAUUCCGCGGCGCGGGCAUGUGUCC [-29/-27 Kcal and A 18%] (Eterna round: R96, puzzle: Exclusion NG 1)
- apparent KD of MS2 coat protein (input ligand: FMN 200 uM): 249 nM
- apparent KD of MS2 coat protein [1]: 46.7 nM
- apparent KD of MS2 coat protein (input ligand: none): 52.5 nM

Sequence: UAGAUGGGAGGAUAUACGUAGAUGCAGGUUCGUGUGGUGCUACAUGAGGAUCACCCAUGUAGAAGGCCCGUCUU [JL-ex2-2.29 Mayanne mod] (puzzle: Exclusion 2)
- apparent KD of MS2 coat protein [3]: 13.6 nM

Sequence: GCACGAAGUGUAGGAUAUCUGUGCGAUUAGCUCAGAGAAGGACACAUGAGGAUCACCCAUGUGUUCCACGGAAACGAAACGUGC [Eli exng1 - 053] (Eterna round: R96, puzzle: Exclusion NG 1)
- apparent KD of MS2 coat protein (input ligand: FMN 200 uM): 9.14 nM
- apparent KD of MS2 coat protein [1]: 8.47 nM
- apparent KD of MS2 coat protein (input ligand: none): 11.9 nM

Sequence: UAAGUGUGAGGAUAUGGUAAAGAUAGAAUGAUGAAAGAACUCCAGAAGGCACAUGAGGAUCACCCAUGUAGAUG [Mat - Exclusion 4 - Mod of JL - D24] (puzzle: Exclusion 4)
- apparent KD of MS2 coat protein [2]: 60.2 nM
- apparent KD of MS2 coat protein [3]: 30.8 nM
- apparent KD of MS2 coat protein [4]: 31.9 nM

Sequence: UUAUAUAGUGUGAGGAUAUGCUGGUCCUUGGAUCAGCAGAAGGCACAUGAGGAUCACCCAUGUAGUUAAUUUUA [JL bmx4 3.03] (puzzle: Brourd's mod of Exclusion 4)
- apparent KD of MS2 coat protein [2]: 118 nM
- apparent KD of MS2 coat protein [3]: 25.2 nM
- apparent KD of MS2 coat protein [4]: 29 nM

Sequence: UUUAAUUUUUUUUUUUUACAAGCUUUUUGCUCGUCUUAUACAUGAGGAUCACCCAUGUGGGUGAGAAGUAAAUUAUC [JMF 48] (puzzle: Sensor v3, turn-off variant 2)
- apparent KD of MS2 coat protein [2]: 63.7 nM
- apparent KD of MS2 coat protein [3]: 14.6 nM
- apparent KD of MS2 coat protein [4]: 224 nM

Sequence: UAUUAGCAAGCAAAUGGGUACAUGAGGAUCACCCAUGUGCUCGUCUUAUAAGGUACUGUGACGACAGUCACGGUACC [mod--Eli4] (Eterna round: R97, puzzle: Sensor, turn-off variant 1)
- apparent KD of MS2 coat protein (input ligand: FMN 200 uM): 24.5 nM
- apparent KD of MS2 coat protein (input ligand: none): 25.3 nM

Sequence: UUUAAUUUUUUUUUUUUACAAGCUUUUUGCUCGUCUUAUACAUGAGGAUCACCCAUGUGGGUAGAAGAUAAAUUAUC [JMF 6] (puzzle: Sensor v3, turn-off variant 2)
- apparent KD of MS2 coat protein [2]: 46.4 nM
- apparent KD of MS2 coat protein [3]: 81.8 nM
- apparent KD of MS2 coat protein [4]: 37.4 nM

Sequence: ACACAGAUAGGAUAUCGGACUAUGGACAUGAGGAUCACCCAUGUGCGUCCAAUGUCCGACCGAGAAGGAUCAACAG [Teesvete] (puzzle: Exclusion 5)
- apparent KD of MS2 coat protein [2]: 146 nM
- apparent KD of MS2 coat protein [3]: 51.8 nM
- apparent KD of MS2 coat protein [4]: 77 nM

Sequence: GUGUACGGAGGAUAUAUAUGGGCAGCAUACGCUGCAGCUUCACAUGAGGAUCACCCAUGUAGAAGGCUGUACAC [Mat - Exclusion 2 - Mod of Hyphema - D100] (puzzle: Exclusion 2)
- apparent KD of MS2 coat protein [3]: 22 nM

Sequence: CCGAGGUAGCGGUCCUAUGACAUGAGGAUCACCCAUGUACCUCGCUACGAGCUUUUUGCUCGUCUUAUAAUUCUCGG [JL Atriat mod 1] (puzzle: Sensor v3, turn-off variant 1)
- apparent KD of MS2 coat protein [2]: 55.2 nM
- apparent KD of MS2 coat protein [3]: 229 nM
- apparent KD of MS2 coat protein [4]: 73.6 nM

Sequence: UACAUGAGGAUCACCCAUGUUUUGUCGUGUAUGGUAUUUAUCUAGGAUAUCAUGUUAUUUAGUUAUGAGAAGGAGAAUAUUAAU [JMF's solution 81] (Eterna round: R96, puzzle: Exclusion NG 3)
- apparent KD of MS2 coat protein (input ligand: FMN 200 uM): 45.6 nM
- apparent KD of MS2 coat protein [1]: 31.3 nM
- apparent KD of MS2 coat protein (input ligand: none): 38.5 nM

Sequence: UUAAUUUUAGGAUAUACAUGAGGAUCACCCAUGUGGCGGGCCAUGAUGGAGCGUACCAGUAGAAGGAAGAACAG [Eternabot (L2) Solution 43] (Eterna round: R97, puzzle: Exclusion 3)
- apparent KD of MS2 coat protein (input ligand: FMN 200 uM): 69.2 nM
- apparent KD of MS2 coat protein (input ligand: none): 73.2 nM

Sequence: AAUAACAGAGGAUAUACUAUUUUAUGUGUUUGUUGUUUUAAACAUGAGGAUCACCCAUGUAGAAGGCUGAUUAA [JMF 46] (puzzle: Exclusion 2)
- apparent KD of MS2 coat protein [3]: 33.1 nM

Sequence: AUUAUAUAGUAAGGAUAUAGAUUAUUAUUUUAACAUGAGGAUCACCCAUGUAGCCUUAUGUAUAACUAGAAGGUACAUUUAUUA [Title] (Eterna round: R96, puzzle: Exclusion NG 2)
- apparent KD of MS2 coat protein [1]: 35.7 nM

Sequence: AAUAAGCAAGGAUAUACGACGAAAAGCGUCAGUGGGCGAUGACAUGAGGAUCACCCAUGUAGAAGGUGCACAUC [Isragela] (puzzle: Exclusion 2)
- apparent KD of MS2 coat protein [2]: 314 nM
- apparent KD of MS2 coat protein [3]: 125 nM
- apparent KD of MS2 coat protein [4]: 203 nM

Sequence: UAAUACAAGUAGAGAUUCUACAUGAGGAUCACCCAUGUGCUCGUCUUAUAAAGUACUAUCACGAAAGUGAUAGUACA [Mat - Sensor v3 - turn-off var 1 - Eli Mod - D97] (puzzle: Sensor v3, turn-off variant 1)
- apparent KD of MS2 coat protein [2]: 23 nM
- apparent KD of MS2 coat protein [3]: 322 nM
- apparent KD of MS2 coat protein [4]: 19.7 nM
